Measurements reported in US20240254202A1 (CONSEJO NACIONAL DE INVESTIGACIONES CIENT FICAS Y T CNICAS …, published 2024).

Target: Spike protein of wild-type virus B. 1.499, hCoV-19/Argentina/PAIS-C0102/2020 (Andina Strain) (SARS-CoV-2)
Assay: cell-based or functional assay

B1: NbCoV_43 (VHH)
VHH: QVQLQESGGGLVQPGGSLRLSCVASGSIGSINHMAWFRKPPGKERELVASITLAPDEIAYYADSVKGRFAISKGNAQPTLYLQMNSLKPEDTAVYYCHFRQIRANAHDVYWGQGTQVTVSS
notes: also called Nb 43
- wildtype VN assay on Vero cells, neutralizing activity: 0.1 µM

B2: NbCoV_39 (VHH)
VHH: QVQLQESGGGLVQAGGSLRLSCAASGRTFSSTAMAWFRQAPGQEREFVATISWSGDNTKYADSVKGRFTISRDNAKNTVYLQMNSLKPEDTAVYYCAADPGNFGVPIEYFMFDYWGQGTQVTVSS
notes: also called Nb 39; 39A
- wildtype VN assay on Vero cells, neutralizing activity: 0.4 µM

B3: NbCoV_104 (VHH)
VHH: QVQLQESGGGLVQPGGSLRLSCAASGSIFRVMGWYRQAPGKEHDLVATITRSGDTNYADSVKGRFTISRDNTKNTVYLQMNNLKPEDTDVYYCYARNFVGHNPDVWGQGTQVTVSS
notes: also called Nb 104
- wildtype VN assay on Vero cells, neutralizing activity: 0.3 µM
